Laboratory results taken from doi:10.1101/2022.04.29.489987 (bioRxiv, 2022).

T1: TRIB2(53–343) (human, UniProt Q92519 53-343)
T1 sequence (looked up): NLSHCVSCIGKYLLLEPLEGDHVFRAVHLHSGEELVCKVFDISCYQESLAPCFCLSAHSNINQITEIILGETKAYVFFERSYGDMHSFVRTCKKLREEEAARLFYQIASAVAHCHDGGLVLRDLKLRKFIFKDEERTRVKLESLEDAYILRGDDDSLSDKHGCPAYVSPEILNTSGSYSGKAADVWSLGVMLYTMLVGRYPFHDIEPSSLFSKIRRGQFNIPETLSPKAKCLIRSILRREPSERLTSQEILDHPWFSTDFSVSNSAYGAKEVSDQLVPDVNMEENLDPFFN

T2: TRIB2(2–343) (human, UniProt Q92519 2-343)
T2 sequence (looked up): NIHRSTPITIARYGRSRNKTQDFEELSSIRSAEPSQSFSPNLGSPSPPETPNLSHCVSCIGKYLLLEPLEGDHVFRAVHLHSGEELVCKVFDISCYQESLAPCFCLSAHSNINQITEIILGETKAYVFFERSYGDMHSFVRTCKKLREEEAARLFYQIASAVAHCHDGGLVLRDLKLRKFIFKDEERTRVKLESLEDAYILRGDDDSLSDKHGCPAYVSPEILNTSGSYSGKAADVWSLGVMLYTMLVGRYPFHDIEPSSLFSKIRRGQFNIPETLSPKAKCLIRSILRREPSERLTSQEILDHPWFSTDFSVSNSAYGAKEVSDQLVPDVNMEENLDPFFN


Legend:
[1] = target: T1, TRIB2(53–343); assay: ITC
[2] = target: TRIB2-Nb4.103 complex (human) (UniProt Q92519); assay: ITC
[3] = target: T2, TRIB2(2–343); assay: ELISA
[4] = target: T1, TRIB2(53–343); assay: SEC-SAXS
[5] = target: T1, TRIB2(53–343); assay: SEC-SAXS; remark: listed apart in the source

Kd [1]	binding result [3]	stoichiometry N [1]	Molecule	further results
9000 nM			MBP-C/EBPa (from UniProt P49715 1-358) (domain or fragment)	fold decrease in affinity against TRIB2 alone [2]: 3 fold
	binds		biotinylated Nb4.101 (Nb-Avi) (VHH, biotin on the Avi-tag) VHH: QVQLQESGGGLVQAGGSLRLSCAASGNISDYLYMGWYRQAPGKERELVAGISYGANTYYADSVKGRFTISRDNAKNTVYLQMNSLKPEDTAVYYCAVFDASRTPILTYWGQGTQVTVSS	
57 nM		~0.5	Nb4.101 (VHH) VHH: QVQLQESGGGLVQAGGSLRLSCAASGNISDYLYMGWYRQAPGKERELVAGISYGANTYYADSVKGRFTISRDNAKNTVYLQMNSLKPEDTAVYYCAVFDASRTPILTYWGQGTQVTVSS	stoichiometry N [4]: 1 TRIB2 per nanobody
54 nM		1	Nb4.105 (VHH) VHH: QVQLQESGGGLVQAGGSLRLSCAASGNIFDNDPMGWYRQAPGKERELVAAIAYGATTYYADSVKGRFTISRDNAKNTVYLQMNSLKPEDTAVYYCAAYGIDDSPKVYSLRYWGQGTQVTVSS	
	binds		biotinylated Nb4.105 (Nb-Avi) (VHH, biotin on the Avi-tag) VHH: QVQLQESGGGLVQAGGSLRLSCAASGNIFDNDPMGWYRQAPGKERELVAAIAYGATTYYADSVKGRFTISRDNAKNTVYLQMNSLKPEDTAVYYCAAYGIDDSPKVYSLRYWGQGTQVTVSS	
27 nM		~0.5	Nb4.103 (VHH) VHH: QVQLQESGGGLVQAGGSLRLSCAASGNISAQAYMGWYRQAPGKERELVAGISYGATTYYADSVKGRFTISRDNAKNTVYLQMNSLKPEDTAVYYCAVISAGGGESIGYHFYWGQGTQVTVSS	stoichiometry N [5]: 2 TRIB2 per nanobody
	binds		biotinylated Nb4.103 (Nb-Avi) (VHH, biotin on the Avi-tag) VHH: QVQLQESGGGLVQAGGSLRLSCAASGNISAQAYMGWYRQAPGKERELVAGISYGATTYYADSVKGRFTISRDNAKNTVYLQMNSLKPEDTAVYYCAVISAGGGESIGYHFYWGQGTQVTVSS	
